Experimental data published in the Human Domainome abundance scans (Beltran et al. 2025).
± gives the uncertainty stated by the source.

B1: Membrane-associated guanylate kinase, WW and PDZ domain-containing protein 1, residues 352 to 401; numbered along this chain, Q96QZ7 (parent)
chain: TEELDSELELPAGWEKIEDPVYGIYYVDHINRKTQYENPVLEAKRKKQLE

Variants of: B1
Experiment: abundance fitness (aPCA) (normalised: wild type 0, dead -1); higher = more abundant; growth selection in yeast, the domain comes from the species named
Conditions: Homo sapiens
For D28N, the abundance fitness was -0.303 ± 0.086. In the case of D28R, the abundance fitness is reported as -1.09 ± 0.059. In the case of D28F, the abundance fitness is reported as -1.12 ± 0.27. Work on D28C yielded an abundance fitness of -1 ± 0.066. For K16D, the abundance fitness was -0.756 ± 0.17. K16E showed an abundance fitness of -0.327 ± 0.095. K16M showed an abundance fitness of -0.206 ± 0.1. K16H gave an abundance fitness of -1.03 ± 0.34. Work on K16F yielded an abundance fitness of -0.688 ± 0.27. K16I showed an abundance fitness of -0.134 ± 0.13. K16C showed an abundance fitness of -0.245 ± 0.042. For K16P, the abundance fitness was -1.11 ± 0.43. Work on H29S yielded an abundance fitness of -0.26 ± 0.064. For H29E, the abundance fitness was -0.354 ± 0.081. With H29Q the abundance fitness was -0.465 ± 0.086. In the case of H29V, the abundance fitness is reported as -0.207 ± 0.038. H29W gave an abundance fitness of -0.439 ± 0.049. For H29T, the abundance fitness was 0.016 ± 0.064. H29G showed an abundance fitness of -0.317 ± 0.042. Work on H29P yielded an abundance fitness of -0.515 ± 0.057. H29R gave an abundance fitness of -0.217 ± 0.043. With H29N the abundance fitness was -0.01 ± 0.082. For E9V, the abundance fitness was -0.126 ± 0.061. For E9K, the abundance fitness was -0.078 ± 0.057. Work on E9R yielded an abundance fitness of -0.179 ± 0.044. E9I showed an abundance fitness of -0.312 ± 0.13. With E9T the abundance fitness was -0.102 ± 0.051. Variant E9Q has an abundance fitness of -0.137 ± 0.1. Variant E9F has an abundance fitness of -0.441 ± 0.059. With E9H the abundance fitness was -0.095 ± 0.1. W14E gave an abundance fitness of -0.416 ± 0.057. Variant W14R has an abundance fitness of -0.438 ± 0.038. Work on W14N yielded an abundance fitness of 0.02 ± 0.13. In the case of W14C, the abundance fitness is reported as -0.324 ± 0.092. Work on W14F yielded an abundance fitness of -0.458 ± 0.14. With L4E the abundance fitness was -0.239 ± 0.044. L4V showed an abundance fitness of -0.064 ± 0.064. Variant L4I has an abundance fitness of 0.349 ± 0.11. For L4S, the abundance fitness was -0.037 ± 0.06. Work on L4T yielded an abundance fitness of -0.021 ± 0.082. L4A showed an abundance fitness of -0.101 ± 0.075. In the case of L4R, the abundance fitness is reported as 0.103 ± 0.058. L4K gave an abundance fitness of 0.019 ± 0.059. For L4G, the abundance fitness was -0.102 ± 0.059. In the case of L4F, the abundance fitness is reported as -0.051 ± 0.097. L4Y showed an abundance fitness of -0.444 ± 0.29. In the case of E2M, the abundance fitness is reported as -0.265 ± 0.14. Variant E2G has an abundance fitness of -0.086 ± 0.057. In the case of E2N, the abundance fitness is reported as 0.372 ± 0.12. Work on E2P yielded an abundance fitness of -0.266 ± 0.059. For E2A, the abundance fitness was -0.185 ± 0.052. L8H showed an abundance fitness of -0.15 ± 0.11. L8I gave an abundance fitness of -0.361 ± 0.11. For L8F, the abundance fitness was -0.091 ± 0.058. L8Y showed an abundance fitness of -0.103 ± 0.067. L8N gave an abundance fitness of -0.561 ± 0.23. L8K gave an abundance fitness of 0.095 ± 0.11. G23R gave an abundance fitness of -0.56 ± 0.048. G23N showed an abundance fitness of -0.822 ± 0.14. In the case of G23V, the abundance fitness is reported as -1.2 ± 0.11. With G23E the abundance fitness was -0.801 ± 0.12. Variant G23A has an abundance fitness of -1.1 ± 0.083. With G23D the abundance fitness was -0.884 ± 0.093. G23C gave an abundance fitness of -1.08 ± 0.21. With G23F the abundance fitness was -0.826 ± 0.3. For G23M, the abundance fitness was -0.9 ± 0.17. In the case of G23W, the abundance fitness is reported as -0.8 ± 0.052. Variant Y26P has an abundance fitness of -0.404 ± 0.052. With Y26S the abundance fitness was -0.337 ± 0.065. Y26L showed an abundance fitness of -0.741 ± 0.074. Y26M showed an abundance fitness of -0.552 ± 0.08. Work on Y26G yielded an abundance fitness of -0.395 ± 0.055. With Y26Q the abundance fitness was -0.385 ± 0.069. With E18M the abundance fitness was -0.231 ± 0.054. In the case of E18L, the abundance fitness is reported as -0.311 ± 0.062. Variant E18C has an abundance fitness of -0.132 ± 0.091. E18T showed an abundance fitness of 0.001 ± 0.08. For N38I, the abundance fitness was -0.61 ± 0.2. N38S showed an abundance fitness of -0.066 ± 0.065. Work on N38W yielded an abundance fitness of -0.138 ± 0.072. Variant L49K has an abundance fitness of -0.002 ± 0.083. With L49H the abundance fitness was -0.073 ± 0.11. In the case of L49V, the abundance fitness is reported as -0.138 ± 0.063. For L49T, the abundance fitness was -0.002 ± 0.05. K46E gave an abundance fitness of -0.256 ± 0.072. K46D showed an abundance fitness of 0.012 ± 0.052. For K46G, the abundance fitness was -0.089 ± 0.038. For K46N, the abundance fitness was -0.41 ± 0.11. For K46F, the abundance fitness was -0.27 ± 0.1. For Q48C, the abundance fitness was -0.134 ± 0.061. With Q48D the abundance fitness was 0.017 ± 0.073. Q48L showed an abundance fitness of -0.279 ± 0.055. Variant Q48N has an abundance fitness of 0.107 ± 0.047. Q48G gave an abundance fitness of -0.221 ± 0.047. Q48M gave an abundance fitness of 0.001 ± 0.042. Q48H showed an abundance fitness of -0.1 ± 0.089. With Q48E the abundance fitness was 0.262 ± 0.077. Q48A showed an abundance fitness of -0.045 ± 0.044. L10M showed an abundance fitness of -0.286 ± 0.076. L10A showed an abundance fitness of -0.322 ± 0.072. For L10F, the abundance fitness was -0.345 ± 0.095. For L10Y, the abundance fitness was -0.571 ± 0.23. Variant L10P has an abundance fitness of -0.385 ± 0.1. L10K showed an abundance fitness of -0.668 ± 0.2. L10H gave an abundance fitness of -0.751 ± 0.26. With L10G the abundance fitness was -0.574 ± 0.055. In the case of L10N, the abundance fitness is reported as -0.574 ± 0.099. L10R showed an abundance fitness of -0.626 ± 0.066. With E50W the abundance fitness was 0.058 ± 0.38. E50I gave an abundance fitness of -0.273 ± 0.33. Variant E50C has an abundance fitness of 0.327 ± 0.43. With E50A the abundance fitness was 0.032 ± 0.064. E50K gave an abundance fitness of -0.264 ± 0.22. E50S showed an abundance fitness of -0.321 ± 0.11. E50V showed an abundance fitness of -0.332 ± 0.11. With Y36Q the abundance fitness was -0.134 ± 0.049. Y36T gave an abundance fitness of -0.041 ± 0.078. With Y36W the abundance fitness was -0.093 ± 0.06. Y36I gave an abundance fitness of -0.185 ± 0.041. Variant Y36R has an abundance fitness of 0.059 ± 0.051. Variant Y36C has an abundance fitness of -0.463 ± 0.08. Variant Y36K has an abundance fitness of -0.058 ± 0.048. For Y36A, the abundance fitness was -0.102 ± 0.067. With G13K the abundance fitness was -0.368 ± 0.05. With G13E the abundance fitness was -0.425 ± 0.049. In the case of G13M, the abundance fitness is reported as -0.448 ± 0.057. Variant G13A has an abundance fitness of -0.458 ± 0.043. Variant G13R has an abundance fitness of -0.59 ± 0.049. G13C showed an abundance fitness of -0.339 ± 0.089. For G13I, the abundance fitness was -0.63 ± 0.084. G13V showed an abundance fitness of -0.703 ± 0.066. With G13H the abundance fitness was -0.54 ± 0.13. Variant E15C has an abundance fitness of -0.794 ± 0.14. Variant E15F has an abundance fitness of -0.764 ± 0.13. With E15I the abundance fitness was -0.733 ± 0.18. Work on E15K yielded an abundance fitness of -0.328 ± 0.1. Variant P39V has an abundance fitness of -0.699 ± 0.062. Work on P39Q yielded an abundance fitness of -0.447 ± 0.087. P39Y showed an abundance fitness of -1.21 ± 0.23. P39W gave an abundance fitness of -0.894 ± 0.072. Variant P39G has an abundance fitness of -0.393 ± 0.057. For P39A, the abundance fitness was -0.379 ± 0.042. In the case of P39F, the abundance fitness is reported as -1 ± 0.17. In the case of P39R, the abundance fitness is reported as -0.648 ± 0.046. Variant D19R has an abundance fitness of -0.855 ± 0.085. With D19A the abundance fitness was -0.551 ± 0.086. Work on D19I yielded an abundance fitness of -0.633 ± 0.05. With D19H the abundance fitness was -0.114 ± 0.094. For D5W, the abundance fitness was -0.303 ± 0.072. D5C gave an abundance fitness of 0.032 ± 0.062. In the case of D5A, the abundance fitness is reported as 0.047 ± 0.071. For D5P, the abundance fitness was 0.023 ± 0.071. With I30A the abundance fitness was -0.093 ± 0.041. I30Y gave an abundance fitness of -0.086 ± 0.1. I30R gave an abundance fitness of -0.128 ± 0.038. For I30K, the abundance fitness was -0.078 ± 0.067. Work on I30G yielded an abundance fitness of -0.203 ± 0.042. For I30M, the abundance fitness was -0.311 ± 0.088. I30L showed an abundance fitness of -0.082 ± 0.054. For I30N, the abundance fitness was -0.397 ± 0.08. I30T gave an abundance fitness of -0.256 ± 0.078. Y22R gave an abundance fitness of 0.056 ± 0.042. Y22H gave an abundance fitness of 0.1 ± 0.11. For P11Q, the abundance fitness was -0.38 ± 0.059. Variant P11A has an abundance fitness of -0.367 ± 0.045. Work on P11I yielded an abundance fitness of -0.424 ± 0.12. P11G showed an abundance fitness of -0.268 ± 0.043.
